Experimental data from publication PMC6559208, “Phylogeny‐guided characterization of glycosyltransferases for epothilone glycosylation” (Microbial Biotechnology, 2019).

Columns and labels:
BcGT-1 = system: T1, BcGT-1; test: UPLC-PDA glycosylation assay, Michaelis-Menten fit; format: biochemical, Bacillus cereus; settings: 10 mM UDP-glucose, 10 mM MgCl2, Tris-HCl pH 7.5, 37 °C, 10 min; read-out: Acceptor substrate (epothilone A) / K m
T1 construct: synthetic gene in pET28a, His tag, E. coli BL21(DE3), nickel-purified
From the text: UPLC-PDA glycosylation assay, Michaelis-Menten fit on BcGT-1

BssGT = system: T2, BssGT; test: UPLC-PDA glycosylation assay, Michaelis-Menten fit; format: biochemical, Bacillus inaquosorum; settings: 10 mM UDP-glucose, 10 mM MgCl2, Tris-HCl pH 7.5, 37 °C, 10 min; read-out: Acceptor substrate (epothilone A) / K m
T2 construct: synthetic gene in pET28a, His tag, E. coli BL21(DE3), nickel-purified
From the text: UPLC-PDA glycosylation assay, Michaelis-Menten fit on BssGT

BsGT-2 = target: T3, BsGT-2 (Bacillus subtilis, UniProt O05496); test: LC-MS conversion assay; format: biochemical; settings: assay mix 0.5 mM epothilone A, 3 mM UDP-glucose, 10 mM MgCl2, Tris-HCl, 400 μg/ml enzyme, no HPLC product peak, Km not determined
T3 construct: gene ydhE; synthetic gene in pET28a, His tag, E. coli BL21(DE3), nickel-purified

[1] = system: C/C(=C\c1csc(C)n1)[C@@H]1C[C@@H]2O[C@@H]2CCC[C@H](C)[C@H](O)[C@@H](C)C(=O)C(C)(C)[C@@H](O)CC(=O)O1; test: UPLC-PDA glycosylation assay, Michaelis-Menten fit; format: biochemical, Bacillus subtilis; settings: 10 mM UDP-glucose, 10 mM MgCl2, Tris-HCl pH 7.5, 37 °C, 10 min
From the text: UPLC-PDA glycosylation assay, Michaelis-Menten fit on YojK

[2] = system: C/C(=C\c1csc(C)n1)[C@@H]1C[C@@H]2O[C@@H]2CCC[C@H](C)[C@H](O)[C@@H](C)C(=O)C(C)(C)[C@@H](O)CC(=O)O1; test: UPLC-PDA glycosylation assay, Michaelis-Menten fit; format: biochemical, Bacillus velezensis; settings: 10 mM UDP-glucose, 10 mM MgCl2, Tris-HCl pH 7.5, 37 °C, 10 min
From the text: UPLC-PDA glycosylation assay, Michaelis-Menten fit on BamGT

[3] = system: C/C(=C\c1csc(C)n1)[C@@H]1C[C@@H]2O[C@@H]2CCC[C@H](C)[C@H](O)[C@@H](C)C(=O)C(C)(C)[C@@H](O)CC(=O)O1; test: UPLC-PDA glycosylation assay, Michaelis-Menten fit; format: biochemical, Bacillus atrophaeus; settings: 10 mM UDP-glucose, 10 mM MgCl2, Tris-HCl pH 7.5, 37 °C, 10 min
From the text: UPLC-PDA glycosylation assay, Michaelis-Menten fit on BaGT

[4] = system: C/C(=C\c1csc(C)n1)[C@@H]1C[C@@H]2O[C@@H]2CCC[C@H](C)[C@H](O)[C@@H](C)C(=O)C(C)(C)[C@@H](O)CC(=O)O1; test: UPLC-PDA glycosylation assay, Michaelis-Menten fit; format: biochemical, Bacillus licheniformis; settings: 10 mM UDP-glucose, 10 mM MgCl2, Tris-HCl pH 7.5, 37 °C, 10 min
From the text: UPLC-PDA glycosylation assay, Michaelis-Menten fit on YjiC

T3 sequence (O05496 whole entry): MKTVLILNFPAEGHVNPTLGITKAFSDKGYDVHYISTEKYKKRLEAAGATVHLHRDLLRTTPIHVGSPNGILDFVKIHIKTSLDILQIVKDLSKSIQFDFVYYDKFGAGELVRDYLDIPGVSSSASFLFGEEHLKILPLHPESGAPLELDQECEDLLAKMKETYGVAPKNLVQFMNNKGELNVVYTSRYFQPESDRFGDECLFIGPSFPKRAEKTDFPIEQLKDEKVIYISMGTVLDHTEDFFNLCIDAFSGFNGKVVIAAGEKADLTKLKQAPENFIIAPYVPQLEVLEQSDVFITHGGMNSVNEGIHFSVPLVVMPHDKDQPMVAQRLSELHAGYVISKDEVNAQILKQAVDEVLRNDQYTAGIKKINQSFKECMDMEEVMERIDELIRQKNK

For `C/C(=C\c1csc(C)n1)[C@@H]1C[C@@H]2O[C@@H]2CCC[C@H](C)[C@H](O)[C@@H](C)C(=O)C(C)(C)[C@@H](O)CC(=O)O1` [epothilone A], the Km (BcGT-1) was 1.2 ± 0.215 mM, the Km (BssGT) was 1.59 ± 0.117 mM and the “% conversion after 10 h” value (BsGT-2) was 0.03%.
Molecule “YojK (Bacillus subtilis subsp. subtilis str. 168)” has a Km [1] of 1720.77 ± 161.35 µM, a kcat [1] of 0.0205 ± 0.00117 s⁻¹ and a kcat/Km [1] of 11.8 M⁻¹ s⁻¹.
BamGT (Bacillus velezensis FZB42) gave a Km [2] of 2245.74 ± 311.96 µM, a kcat [2] of 0.0182 ± 0.00117 s⁻¹ and a kcat/Km [2] of 8.33 M⁻¹ s⁻¹.
BaGT (Bacillus atrophaeus 1942) gave a Km [3] of 113.66 ± 10.55 µM, a kcat [3] of 0.113 ± 0.00417 s⁻¹ and a kcat/Km [3] of 990 M⁻¹ s⁻¹.
In the case of “YjiC (Bacillus licheniformis DSM 13 = ATCC 14580)”, the Km [4] is reported as 94.58 ± 2.95 µM, the kcat [4] is reported as 0.192 ± 0.00317 s⁻¹ and the kcat/Km [4] is reported as 2030 M⁻¹ s⁻¹.
